Experimental findings from the nanobody polyreactivity screen of Harvey et al. (2022) are described below.

This series can be described thus: yeast display, Sf9 membrane polyspecificity reagent, FACS + sequencing; frameworks hold sequencing errors. The gist of the method: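 Genes from sorted yeast were amplified by colony PCR, read by MiSeq 2 × 250 sequencing and filtered on CDR length. These cells carried a synthetic nanobody library in Saccharomyces cerevisiae BJ5465 and were sorted by FACS into low and high (top ~1%) gates on anti-HA and streptavidin fluorescence. Polyreactivity is labelled according to the gate of origin.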
As for “QVQLVEKGGGLVQAGGSLRLSCAASGSTFRNNAMGRYREAPGKERELVAAIPYSGDSTSYADSVKGRFTISRDNAKNTVYLQMNSLKPEDTAVYYCNAAIDGIYLGSYTAYGYDSWGQGTQVTVSS”, the “polyreactivity (PSR sort gate)” value is “low polyreactivity”.
The result for “QVQLVEKGGGLVQAGGSLRLSCAASGYIFRFYTKRWYRQAPGKERELVASITRSGGSTYYADSVKGRFTFSRENAKNTVYLQKNSLKPEDTAVYYCNARKTVGMDYWGQGTQVTVSS” reads “low polyreactivity”; that for “QVQLVESAAGLVQAGGSLRLSCAASGIIFPRNVMGWYRQAPGKERELVAAITYSGGRTYYADSVKGRFTISRDNAKNTVYLQMNSLKPEDTAVYYCNADFRSQPYDYWGQGTQVTVSS”, “low polyreactivity”; that for “QVQLVESAAGLVQAGGSLRLSCADSGSTIYRYAMGWYRQAPGKERELVAAISTTGGSTFYADSVKGRFTISRDNAKNTVYLQMNSLKPEDTAVYYCNAYYRGTYDYWGQGTQVTVSS”, “high polyreactivity”.
The result for “QVQLVESAGALVQAGGSLRLSCAASGRIFSVYAMGWYRQAPGKERELVATITYNGGSTYYADSVKGRFTISRDNAKNTVYLQMNSLKPEDTAVYYCAADWTYVRFDYWGQGTQVTVSS” reads “low polyreactivity”; that for “QVQLVESAGCLVQAGGSLRLSCDASGIIFKVYAMGWYSQAPGKEREWVAAISWSGSSTYYADTVKGRFTISRDKAKNTVYLQMNSLKPEDTAVYYCAAYSVARSMGYWGQGTQVTVSS”, “high polyreactivity”.
Regarding “QVQLVESAGGIVQAGGSLRLSCAASGFIFVRNAIGWYRQAPGKEREFVAAINSSGGRTYYADSVKGRFTISRDNAKNTVYLQMNSLKPEDPAVYYCAARPQPKKFYYWGLGTQVTVSS”, the “polyreactivity (PSR sort gate)” value is reported as “high polyreactivity”.
With “QVQLVESAGGLVQAAGSLRLSCAASGFVFYSYAMGWYRQAPGKERELVAVISRSGGSTYYADSVKGRFTISRDNAKNTVYFQMNSLKPEDTAVYYCAAKYHGQERGAPPFYYWGQGTQVTVSS”, the “polyreactivity (PSR sort gate)” value was “high polyreactivity”.
On to “QVQLVESAGGLVQAAGSLRLSCDASGRIFWYNAMGWYRQEPGKERELVAAISSGGSTSYADSVKGRFTISRDNAKNTVYLQMNSLKPEDTAVYYCDKDDERKQGQYPPYDSWGQGTQVTVSS”, for which the “polyreactivity (PSR sort gate)” value is “low polyreactivity”.
With “QVQLVESAGGLVQAGASLRLSCAASGIIFTRYAMGWYRQPPGKESELVAAITRSSGSTYYADSVKGRFTISRDNAKNTVYLQMNSLKPEDSAVYYCAADWVSRYQARPYFSAFNYWGQGTQVTVSS”, the “polyreactivity (PSR sort gate)” value was “high polyreactivity”.
The result for “QVQLVESAGGLVQAGASLRLSCAASGSIFGGYAMGWYRQAPGTERELVAAISSGDSTYYADSVKGRFTISRDNAKNTVYLQMNSLKPEDTAVYYCARRYTRSYYKLGKLNYWGQGTQVTVSS” reads “high polyreactivity”; that for “QVQLVESAGGLVQAGGILRLRCAASGFTFTSNAMGWYRQAPGKEREFVADISNIGGDTTYADSVKGRFTISRDNAKNTVYLQMNSLNPEDTAVYYCNADFAFIENDYCGQGTQVTVSS”, “low polyreactivity”; that for “QVQLVESAGGLVQAGGILRLSCHASGITFTSYVMGWYRQSPGKERELVAAIRWSGGRTYYADSVKGRFTISRDNAKNTVYLQMNSLKPEDTAVYYCNRVTRSHVDYWGQGTQVTVSS”, “high polyreactivity”.
Regarding “QVQLVESAGGLVQAGGSLRLICAASGSTFTYYPMGWYRQAPGKERELVAAISGSGGRTYYADSVKGLFTISRDNAKNTVYLQMNSLKPEDTAVYYCNARATSLVPGRPKQYTYYYWGQGTQVTVSS”, the “polyreactivity (PSR sort gate)” value is “high polyreactivity”.
As for “QVQLVESAGGLVQAGGSLRLSCAASGFIFARYAMGWYRQAPGKERELVAAISSSGGITYYADSVKGRFTISRDNAKNTVYFQMNSLKPEDTAVYYCNAESYYFYWPVYSYDYWGQGTQVTVSS”, the “polyreactivity (PSR sort gate)” value is recorded as “low polyreactivity”.
As for “QVQLVESAGGLVQAGGSLRLSCAASGFSFYYNTMGWYRQAPGTEWELVASITWSGDTTYYADSVKGRFTISRDNAKNTVYLQMNSLKPEDTAVYYCAAVPYYPYRRYDYWGQGTQVTVAS”, the entry is “low polyreactivity”.
The result for “QVQLVESAGGLVQAGGSLRLSCAASGFTFDYYAMGWYRQAPGKERELVASITFIGGNTNYADSVKGRFTISRDNAKTTVYLQMNSLKPEDTAVYYCAADFPWDYRYWFEYWGQGTQVTVSS” reads “low polyreactivity”.
As for “QVQLVESAGGLVQAGGSLRLSCAASGFTFYRNAIGWYRQEPGTERELVAGITRSGGSTYYADSVKGRLTISRDNAKNTVYLQMNSLKPEDTAVYYCNKAFGGDKYSGTYDYWGQGTQVTVSS”, the entry is “high polyreactivity”; as for “QVQLVESAGGLVQAGGSLRLSCAASGFTFYTYGMGWYRQAPGKERALVAAITSGVSTNYADSVKGRFTISRDNAKNTVYLQMNSLKPEDTAVYYCNKVGRPAYRWYDYWGQDTQVTVSS”, “low polyreactivity”.
“QVQLVESAGGLVQAGGSLRLSCAASGIIFGQNAMGWYRQAPGKDRELVAAITISGGSTYYADSVKGRFTISRDNAKNTVYLQMNSLKPEVTAVYYCAARRVTWKDIAGGYRYGYWGQGTQVTVSS”: the “polyreactivity (PSR sort gate)” value is listed as “low polyreactivity”.
Turning to “QVQLVESAGGLVQAGGSLRLSCAASGIIFTYYAMGWYRQAPGKERELVAAISSSSGSTYYADSVKGRFTISRDNAKNTVYLQMNSLKPEDTAVYYCAAAFSQYSTSYYYWGQGTQVTVSS”, the “polyreactivity (PSR sort gate)” value is given as “high polyreactivity”.
The result for “QVQLVESAGGLVQAGGSLRLSCAASGITFEVYAMGWYRQAPGKERELVAAITGSGSRTYYADSVKGRFTISRDNAKNTVYLQMNSLKPEDTAVYYCAVKGFSTRSYREFDYWGQGSQVTVSS” reads “low polyreactivity”; that for “QVQLVESAGGLVQAGGSLRLSCAASGITFRYYAMGWYRQAPGKERELVATITRGGSTYYADSVKGRFTISRDNAKNTVYLQMNSLKPEDTAVYYCAARSYVPSYDYWGQGTQVTVSS”, “high polyreactivity”.
On to “QVQLVESAGGLVQAGGSLRLSCAASGLTFYVNAMGWYRQAPGKERELVAAITWSGGSTHYADSVKGRFTISRDNAKNTVYLQMNSLKPEDTAVYYCARATYQHSYVAYDYWGQGTQVTVSS”, for which the “polyreactivity (PSR sort gate)” value is given as “low polyreactivity”.
For the sequence “QVQLVESAGGLVQAGGSLRLSCAASGNTFRYYAIGWYRQAPGKERELVAVITTRGGSTNYADSVKGRFTISRDNAKNTVYLQMNRLKPEVTAGYYCNTLRHYGPGYDSGGQGTQVTVSS”, the “polyreactivity (PSR sort gate)” value is given as “low polyreactivity”.
Take “QVQLVESAGGLVQAGGSLRLSCAASGRIFDRYTMGCYRQAPGKERELVAAITFGGGSTYYADSVKGRFTISRDNAKNTVYLQMNSLKPEDTAVYYCAKQRHGKLGHILGYNYWGQGTQVTVSS”: the “polyreactivity (PSR sort gate)” value is listed as “low polyreactivity”.
In the case of “QVQLVESAGGLVQAGGSLRLSCAASGRIFGRYAMGWYRQAPGKERELVAAITSGTSTYYADSVKGRFTISRDNAKNTVYLQMNSLKPEDTAVYYCNADYPYYPYRENYWGQGTQVTVSS”, the “polyreactivity (PSR sort gate)” value is given as “low polyreactivity”.
As for “QVQLVESAGGLVQAGGSLRLSCAASGRIFPYYAMGWYRQAPGKERELVAAITTDGGGTYYADSVKGRFTISRDNSKNTVYLQMNSMKPEDTAVYYCAVPSYQWYDPENYWGQGTQVTVSS”, the entry is “low polyreactivity”.
As for “QVQLVESAGGLVQAGGSLRLSCAASGRISAYAMGWYRQAPGKERELVAAISSRGGRTYYADSVKGRFTISRDNAKNTVYLQMNSLKPDDTAVYYCNALRTWEFDHWGQGTQVTVSS”, the entry is “high polyreactivity”.
As for “QVQLVESAGGLVQAGGSLRLSCAASGRNFYRNAMGWYRQAPGKERELVAAISYSGGSTYYADSVKGRFTISRDNAKNTVYLQMNSLKPEDTAVYYFAAAGDRWGNYWGQGTLVTVSS”, the entry is “high polyreactivity”; as for “QVQLVESAGGLVQAGGSLRLSCAASGRTFPGNAMGWYRQAPGKERELVATISSGGTTNYADSVKGRFTISRDNAKTTVYLQMNSLKPEDTAVYYCATDTYHHKADYEYWGQGTQVTVSS”, “low polyreactivity”.
In the case of “QVQLVESAGGLVQAGGSLRLSCAASGSICTKYAMGWYRQAPGKERELVAAISASGGSTYYADSVKGRFTISRDNAKNTVYLQMNSLKPEDTAVYYCAARYWVREDYWGQGTQVTVSS”, the “polyreactivity (PSR sort gate)” value is on record as “high polyreactivity”.
For the sequence “QVQLVESAGGLVQAGGSLRLSCAASGSIFILNAMGWYRQAPGKERELVAAISWSGGRTNYADSVKGRFTISRDNAKNTVYLHMNRLKPEDTAVYSCAARVTPYRGFYYWGQGTQVTVSS”, the “polyreactivity (PSR sort gate)” value is given as “high polyreactivity”.
As for “QVQLVESAGGLVQAGGSLRLSCAASGSIFPAYAMGWYRQAPGKERELVASITTGDRTYYADSVKGRFTISRDNAKNTVYLQMNSLKPEDTAVYYCAALYYVHYYSAHYPTLSRHEYWGPGTQVTVSS”, the entry is “high polyreactivity”; as for “QVQLVESAGGLVQAGGSLRLSCAASGSIFSRNAMGWYRPAPGKERELVAAITWSGGSTYYADSVKGRFTISRDNAKNTVYLQMNSLKPEDTAVYYCNAKRSSRIKQLEYDYWGQGTQVTVSS”, “high polyreactivity”; as for “QVQLVESAGGLVQAGGSLRLSCAASGSIFTTYTIVWYRQAPGKERELVAAITSSSGSTYYADSVKGRFTISRDNAKNTVYLQMNSLKPEDTAVYYCNATYSAAVDYWGQGTQVTVSS”, “low polyreactivity”.
As for “QVQLVESAGGLVQAGGSLRLSCAASGSTFDLYAMGWYRQAPGKEREFVAAISRSGGSTYYADSVKGRFTISRDNAKNTVYLHMNSLKPEDTAVYYSNARWPPGVSRGGMGYWGQGTQVTVST”, the entry is “high polyreactivity”.
As for “QVQLVESAGGLVQAGGSLRLSCAASGSTFGENAMGWYRQAPGKERELVAAISDSGGDTYYADSVKGRFTISRDNAKYTVYLQMNSLKPEDTAVYYCAADRYGYWYAYYSWGQGTLVTVSS”, the “polyreactivity (PSR sort gate)” value was “low polyreactivity”.
The result for “QVQLVESAGGLVQAGGSLRLSCAASGSTFIRYAMGWYRQAPGKERELVAAITRGGSTYYADSVKGRFTISRDNAKYTVYLQMNSLKPEDTAVYYCAAGYYGNGVFEYDYWGQGTQVTVSS” reads “low polyreactivity”.
The result for “QVQLVESAGGLVQAGGSLRLSCAASGSTFPTYAMGWYRQSPGKERELVAAIDWSDGSITYYADSVKGRFTISRDNAKNTVYLQMNSMKPEDTAVYYCAKDNSQYGWGYDYWGQGTQVTVSS” reads “low polyreactivity”; that for “QVQLVESAGGLVQAGGSLRLSCAASGSTFVANAMGWYRQAPGKERELVARISRSTGSTYYADSVKGRFTISRDNAKNTVYLQMNSLKPEDTAVYYCAAPSVYYPQFDYWGQGTQVTVSS”, “high polyreactivity”.
